Consider four molecules from patent publication US20180125892A1 (published 2018).

Positions count from the first letter of the chain named.

This assay concerns the target T1, human CD20 (human, UniProt P11836 1-297).
T1 construct: whole, on cells; cell-surface antigen; also called MS4A1
T1 sequence (looked up): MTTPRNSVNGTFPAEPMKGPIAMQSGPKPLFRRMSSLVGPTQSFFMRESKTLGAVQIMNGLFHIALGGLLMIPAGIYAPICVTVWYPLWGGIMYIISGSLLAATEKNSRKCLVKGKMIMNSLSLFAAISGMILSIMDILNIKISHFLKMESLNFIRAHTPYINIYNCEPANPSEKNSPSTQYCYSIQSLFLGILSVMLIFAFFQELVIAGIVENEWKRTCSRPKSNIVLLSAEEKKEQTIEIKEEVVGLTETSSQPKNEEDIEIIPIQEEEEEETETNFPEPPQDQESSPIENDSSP
Put plainly: worded conclusion from JNL NFAT-luciferase reporter co-culture with CD20-positive cell lines. From the text: To evaluate the functional ability of CD20 CARs to activate JNL cells, they were co-cultured with target cancer cells to read out their activation by quantifying luciferase expression. The humanized scFv-based CARs CD20-C2H1, -C2H2, -C2H3, -C2H4, -C3H1, -C3H2, -C3H3, -C3H4, -C5H1, -C5H2, -C5H3, -C5H4, -C8H1, -C8H2, -C8H3, and -C8H4, were compared to CD20-8aBBz and CD20-3, -3m, -3J, -3H5k3, and -3H5k1. The control CARs CD20-3 and CD20-8aBBz were used in all assays to compare assay variation and/or act as a control. The EGFRvIII CAR T cells (CAR 2174, Johnson et al., Science Translational Medicine 2015) were used as non-targeting control.
JNL CART cells were co-cultured with the Burkitt's lymphoma line Raji (RRID: CVCL_0511) and the diffuse large B cell lymphoma (DLBCL) lines Pfeiffer (RRID: CVCL_3326), HBL-1 (RRID: CVCL_4213) and TMD8 (RRID: CVCL_A442); K562 (RRID: CVCL_0004), a chronic myelogenous leukemia (CML) cell line, served as CD20-negative control. Co-cultures were set up in 384-well plates at effector-to-target (E:T) ratios of 4:1, 2:1, 1:1 and 0.5:1 and incubated for 24 h, after which the expression of luciferase by the activated JNL CAR T cells was quantified by britelite plus Reporter Gene Assay System (PerkinElmer, Waltham, Mass.). The amount of light emitted from each well (Luminescence) was a direct read-out of JNL activation by the respective CAR. […] Some of the humanized scFvs, which were fused to the transmembrane and signaling domains of the CARs, seem to have improved the efficacy of CARs to activate JNL T cells. These were CD20-C2H1, -C2H3, -C5H1, -C5H2, and -C8H3.

B1: CD20-C3H1 CAR (other)
chain: QVQLVQSGAEVKKPGASVKVSCKASGYTFTNYNLHWVRQAPGQGLEWMGAIYPGNYDTSYNQKFKGRVTMTADKSTSTAYMELSSLRSEDTAVYYCARVDFGHSRYWYFDVWGQGTTVTVSSGGGGSGGGGSGGGGSGGGGSEIVLTQSPATLSLSPGERATLSCRATSSVSSMNWYQQKPGQAPRPLIHATSNLASGIPARFSGSGSGTDYTLTISSLEPEDAAVYYCQQWTFNPPTFGQGTKLEIKTTTPAPRPPTPAPTIASQPLSLRPEACRPAAGGAVHTRGLDFACDIYIWAPLAGTCGVLLLSLVITLYCKRGRKKLLYIFKQPFMRPVQTTQEEDGCSCRFPEEEEGGCELRVKFSRSADAPAYQQGQNQLYNELNLGRREEYDVLDKRRGRDPEMGGKPRRKNPQEGLYNELQKDKMAEAYSEIGMKGERRRGKGHDGLYQGLSTATKDTYDALHMQALPPR
notes: CAR on cell surface; residues 1-21 = signal peptide
As to B1, the binding result is listed as “binds”.

B2: CD20-C3H2 CAR (other)
chain: QVQLVQSGAEVKKPGASVKVSCKASGYTFTNYNLHWVRQAPGQGLEWMGAIYPGNYDTSYNQKFKGRVTMTADKSTSTAYMELSSLRSEDTAVYYCARVDFGHSRYWYFDVWGQGTTVTVSSGGGGSGGGGSGGGGSGGGGSDIQLTQSPSFLSASVGDRVTITCRATSSVSSMNWYQQKPGKAPKPLIHATSNLASGVPSRFSGSGSGTEYTLTISSLQPEDFATYYCQQWTFNPPTFGQGTKLEIKTTTPAPRPPTPAPTIASQPLSLRPEACRPAAGGAVHTRGLDFACDIYIWAPLAGTCGVLLLSLVITLYCKRGRKKLLYIFKQPFMRPVQTTQEEDGCSCRFPEEEEGGCELRVKFSRSADAPAYQQGQNQLYNELNLGRREEYDVLDKRRGRDPEMGGKPRRKNPQEGLYNELQKDKMAEAYSEIGMKGERRRGKGHDGLYQGLSTATKDTYDALHMQALPPR
notes: as for B1
Take B2: the binding result was “binds”.

B3: CD20-C2H3 CAR (other)
chain: QVQLVQSGAEVKKPGASVKVSCKASGYTFTNYWMHWVRQAPGQGLEWMGFITPTTGYPEYNQKFKDRVTMTADKSTSTAYMELSSLRSEDTAVYYCARRKVGKGVYYALDYWGQGTTVTVSSGGGGSGGGGSGGGGSGGGGSAIRMTQSPFSLSASVGDRVTITCRASGNIHNYLAWYQQKPAKAPKLFIYNTKTLADGVPSRFSGSGSGTDYTLTISSLQPEDFATYYCQHFWSSPWTFGGGTKVEIKTTTPAPRPPTPAPTIASQPLSLRPEACRPAAGGAVHTRGLDFACDIYIWAPLAGTCGVLLLSLVITLYCKRGRKKLLYIFKQPFMRPVQTTQEEDGCSCRFPEEEEGGCELRVKFSRSADAPAYQQGQNQLYNELNLGRREEYDVLDKRRGRDPEMGGKPRRKNPQEGLYNELQKDKMAEAYSEIGMKGERRRGKGHDGLYQGLSTATKDTYDALHMQALPPR
notes: as for B1
Take B3: the binding result is “binds”.

B4: CD20-C2H4 CAR (other)
chain: B3 chain with A16S, M70I
notes: as for B1
Consider B4, for which the binding result is reported as “binds”.
